The target of assay [1] is recombinant Arabidopsis protein geranylgeranyltransferase type 1 (PGGT1) (Arabidopsis (ecotype Col-0)) (UniProt Q9LX33).
Assay [2] concerns the target recombinant Arabidopsis protein farnesyltransferase (PFT) (Arabidopsis (ecotype Col-0)) (UniProt Q9LX33).

Chain of recombinant Arabidopsis protein farnesyltransferase (PFT) (Arabidopsis (ecotype Col-0)) (Q9LX33 whole entry, chain 1 of 2): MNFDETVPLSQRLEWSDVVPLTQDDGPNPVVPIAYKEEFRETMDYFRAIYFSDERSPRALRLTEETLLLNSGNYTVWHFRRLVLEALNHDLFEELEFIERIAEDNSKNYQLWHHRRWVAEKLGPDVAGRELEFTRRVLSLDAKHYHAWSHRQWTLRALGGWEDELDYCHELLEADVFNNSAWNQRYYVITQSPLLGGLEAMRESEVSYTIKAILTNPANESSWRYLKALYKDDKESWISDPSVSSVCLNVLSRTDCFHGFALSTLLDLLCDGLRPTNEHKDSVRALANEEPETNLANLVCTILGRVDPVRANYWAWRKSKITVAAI
Chain of recombinant Arabidopsis protein farnesyltransferase (PFT) (Arabidopsis (ecotype Col-0)) (Q38920 whole entry, chain 2 of 2, further chain): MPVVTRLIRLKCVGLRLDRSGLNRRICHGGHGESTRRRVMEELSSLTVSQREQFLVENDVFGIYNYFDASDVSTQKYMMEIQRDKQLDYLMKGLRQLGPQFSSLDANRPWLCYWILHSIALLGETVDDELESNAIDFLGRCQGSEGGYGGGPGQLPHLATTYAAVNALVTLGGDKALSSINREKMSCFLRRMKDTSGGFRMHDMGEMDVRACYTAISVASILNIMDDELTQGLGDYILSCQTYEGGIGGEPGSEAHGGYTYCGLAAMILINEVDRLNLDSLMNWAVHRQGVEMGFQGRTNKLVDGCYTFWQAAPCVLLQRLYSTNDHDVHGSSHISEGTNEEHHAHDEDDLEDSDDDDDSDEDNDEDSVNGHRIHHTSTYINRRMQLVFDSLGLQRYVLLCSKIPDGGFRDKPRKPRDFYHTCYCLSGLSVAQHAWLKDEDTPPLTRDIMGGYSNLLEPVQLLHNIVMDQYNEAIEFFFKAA
Chain of recombinant Arabidopsis protein geranylgeranyltransferase type 1 (PGGT1) (Arabidopsis (ecotype Col-0)) (Q9LX33 whole entry, chain 1 of 2): as the sequence (Q9LX33 whole entry, chain 1 of 2) above
Chain of recombinant Arabidopsis protein geranylgeranyltransferase type 1 (PGGT1) (Arabidopsis (ecotype Col-0)) (O80642 whole entry, chain 2 of 2, further chain): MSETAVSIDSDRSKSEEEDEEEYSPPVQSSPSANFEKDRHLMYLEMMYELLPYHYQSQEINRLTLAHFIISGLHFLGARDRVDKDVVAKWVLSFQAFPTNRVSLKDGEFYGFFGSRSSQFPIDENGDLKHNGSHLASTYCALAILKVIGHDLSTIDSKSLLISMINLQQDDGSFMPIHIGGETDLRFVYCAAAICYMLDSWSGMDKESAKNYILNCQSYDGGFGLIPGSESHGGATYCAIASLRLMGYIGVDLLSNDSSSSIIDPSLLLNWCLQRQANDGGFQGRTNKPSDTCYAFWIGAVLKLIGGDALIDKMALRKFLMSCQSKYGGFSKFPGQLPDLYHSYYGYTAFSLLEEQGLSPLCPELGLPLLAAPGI

For GFP-BD-CVII, in assay [1], the Km for the CaaX protein substrate; in vitro prenylation by purified PGGT1 with [1-3H]geranylgeranyl diphosphate, Lineweaver-Burk analysis was 19 µM. The Km for the CaaX protein substrate; in vitro prenylation by purified PFT with [1-3H]farnesyl diphosphate, Lineweaver-Burk analysis in assay [2] came to 6.9 µM.
For the substance GFP-BD-CVIL, the Km for the CaaX protein substrate; in vitro prenylation by purified PGGT1 with [1-3H]geranylgeranyl diphosphate, Lineweaver-Burk analysis in assay [1] came to 17.2 µM. Further, in assay [2], the Km for the CaaX protein substrate; in vitro prenylation by purified PFT with [1-3H]farnesyl diphosphate, Lineweaver-Burk analysis was found to be 7 µM.
GFP-BD-CVIM: the Km for the CaaX protein substrate; in vitro prenylation by purified PGGT1 with [1-3H]geranylgeranyl diphosphate, Lineweaver-Burk analysis in assay [1] stood at 5.8 µM. For the same substance, in assay [2], the Km for the CaaX protein substrate; in vitro prenylation by purified PFT with [1-3H]farnesyl diphosphate, Lineweaver-Burk analysis was found to be 5.4 µM.
For GFP-BD-CVIQ, the Km for the CaaX protein substrate; in vitro prenylation by purified PGGT1 with [1-3H]geranylgeranyl diphosphate, Lineweaver-Burk analysis in assay [1] is 3.5 µM. The Km for the CaaX protein substrate; in vitro prenylation by purified PFT with [1-3H]farnesyl diphosphate, Lineweaver-Burk analysis in assay [2] is 5.5 µM.

The record behind these values is publication PMC3017772, “The CaaX specificities of Arabidopsis protein prenyltransferases explain era1 and ggb phenotypes” (BMC Plant Biology, 2010).
